{"source": "patent US20150204859", "about": "“MULTIPLEXED MICROCOLUMN DEVICES AND PROCESSES FOR SELECTION OF NUCLEIC ACID APTAMERS” (CORNELL UNIVERSITY, published 2015)", "key": {"GFP": {"target": "GFP (UniProt P42212)", "conditions": "RNA transcript; printed sequence is the DNA template strand (RNA is its reverse complement); microcolumn qPCR recovery fit by simulation; non-specific background binding"}, "hHSF2 [1]": {"target": "T1, hHSF2 (Homo sapiens, UniProt Q03933 Q03933:1-536)", "T1 sequence (Q03933 whole entry, one chain of several)": "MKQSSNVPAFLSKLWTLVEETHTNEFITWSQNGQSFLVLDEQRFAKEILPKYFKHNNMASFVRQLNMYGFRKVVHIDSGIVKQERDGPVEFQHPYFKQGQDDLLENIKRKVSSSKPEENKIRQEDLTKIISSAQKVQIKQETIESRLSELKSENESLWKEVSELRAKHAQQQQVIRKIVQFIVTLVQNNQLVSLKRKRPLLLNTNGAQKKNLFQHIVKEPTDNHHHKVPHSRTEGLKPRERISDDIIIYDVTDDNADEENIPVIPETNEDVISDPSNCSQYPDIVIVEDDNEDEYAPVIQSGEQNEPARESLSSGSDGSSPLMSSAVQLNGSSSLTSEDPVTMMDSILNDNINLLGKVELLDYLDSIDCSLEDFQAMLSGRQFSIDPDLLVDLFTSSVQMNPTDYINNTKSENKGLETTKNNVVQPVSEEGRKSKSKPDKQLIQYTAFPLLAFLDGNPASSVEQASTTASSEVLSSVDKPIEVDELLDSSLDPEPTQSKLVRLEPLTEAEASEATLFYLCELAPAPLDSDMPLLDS", "experiment": "EMSA; confirmed by FP (FIG. 22B); exact value only in figure", "conditions": "tags: N-terminal GST; E. coli BL21(DE3)-RIPL; label: 3'-fluorescein (5-thiosemicarbazide)", "protocol": "(§1) The candidate aptamers were 3′-end labeled with fluorescein 5-thiosemicarbazide (Invitrogen) as described previously (Ref. 16). 50 μL binding reactions were prepared with 2 nM fluorescently-labeled RNA and decreasing amounts of protein (2000 to 0 nM) in binding buffer containing 0.01% IGEPAL CA630, 10 μg/ml tRNA, and 3U of SUPERase•In RNase Inhibitor (Invitrogen). […] The gel was run for 80 minutes at 100 volts in refrigerated 0.5×TBE. Images were acquired using the fluorescein scan settings on a Typhoon 9400 imager (GE Healthcare Life Sciences). The resulting bands were quantified with ImageQuant software and the data was fit to the Hill equation using Igor (Wavemetrics) to estimate the equilibrium dissociation constant (KD).\n(§2) The putative RNA aptamers were fluorescently end-labeled and then tested for binding to their hHSF targets using F-EMSA and FP assays (Ref. 16). An image of a typical F-EMSA result is shown in FIG. 17A for hHSF1-R5-1 aptamer binding to hHSF1 protein. […] The F-EMSA results were confirmed by the FP assays (FIGS. 22 and 23). Thus, the observed binding is not due to the affinity tags on the protein targets but rather specific domains of the targets themselves."}, "hHSF1 [2]": {"target": "T2, hHSF1 (Homo sapiens, UniProt Q00613 Q00613:1-529)", "T2 sequence (Q00613 whole entry, one chain of several)": "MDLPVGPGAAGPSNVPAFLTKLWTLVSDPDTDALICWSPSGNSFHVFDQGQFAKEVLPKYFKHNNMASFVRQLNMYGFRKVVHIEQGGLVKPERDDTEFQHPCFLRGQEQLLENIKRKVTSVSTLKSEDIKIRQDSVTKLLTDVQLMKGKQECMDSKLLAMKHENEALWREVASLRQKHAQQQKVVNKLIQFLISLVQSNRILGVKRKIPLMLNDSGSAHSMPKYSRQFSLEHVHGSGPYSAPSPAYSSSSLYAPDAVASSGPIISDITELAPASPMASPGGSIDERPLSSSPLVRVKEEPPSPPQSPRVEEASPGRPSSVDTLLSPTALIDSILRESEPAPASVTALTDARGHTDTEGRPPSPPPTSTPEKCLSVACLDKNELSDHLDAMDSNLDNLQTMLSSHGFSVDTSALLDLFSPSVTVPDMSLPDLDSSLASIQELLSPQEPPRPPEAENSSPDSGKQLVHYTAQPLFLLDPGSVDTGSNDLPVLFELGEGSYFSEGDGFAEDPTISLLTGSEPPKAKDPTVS", "experiment": "EMSA; room temperature 2 h, 10 ug/ml tRNA; confirmed by FP (FIG. 22A); exact value only in figure", "conditions": "tags: N-terminal GST; E. coli BL21(DE3)-RIPL; label: 3'-fluorescein (5-thiosemicarbazide)", "protocol": "as §1, §2"}, "GST tag [3]": {"target": "T3, GST tag (UniProt P08515 P08515:1-218)", "T3 sequence (P08515 whole entry, one chain of several)": "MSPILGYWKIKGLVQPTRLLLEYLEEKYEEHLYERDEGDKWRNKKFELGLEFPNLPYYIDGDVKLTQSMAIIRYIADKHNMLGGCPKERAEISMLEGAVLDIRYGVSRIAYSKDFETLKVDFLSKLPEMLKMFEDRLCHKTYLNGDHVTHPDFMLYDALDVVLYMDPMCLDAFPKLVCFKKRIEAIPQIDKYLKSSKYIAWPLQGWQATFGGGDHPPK", "experiment": "EMSA; no binding to GST tag alone; FP FIG. 22D", "conditions": "tags: GST tag alone, ~30 kDa; label: 3'-fluorescein (5-thiosemicarbazide)", "protocol": "as §1, §2"}, "hHSF2 [4]": {"target": "T1, hHSF2", "experiment": "EMSA; room temperature 2 h, 10 ug/ml tRNA; confirmed by FP (FIG. 23B); exact value only in figure", "conditions": "tags: N-terminal GST; E. coli BL21(DE3)-RIPL; label: 3'-fluorescein (5-thiosemicarbazide)", "protocol": "as §1, §2"}, "hHSF1 [5]": {"target": "T2, hHSF1", "experiment": "EMSA; confirmed by FP (FIG. 23A); exact value only in figure", "conditions": "tags: N-terminal GST; E. coli BL21(DE3)-RIPL; label: 3'-fluorescein (5-thiosemicarbazide)", "protocol": "as §1, §2"}, "GST tag [6]": {"target": "T3, GST tag", "experiment": "EMSA; no binding to GST tag alone; FP FIG. 23D", "conditions": "tags: GST tag alone, ~30 kDa; label: 3'-fluorescein (5-thiosemicarbazide)", "protocol": "as §1, §2"}}}
{"molecule": "AAGCUUCGUCAAGUCUGCAGUGAANNNNNNNNNNNNNNNNNNNNNNNNNNNNNNNNNNNNNNNNNNNNNNNNNNNNNNNNNNNNNNNNNNNNNNGAAUUCGUAGAUGUGGAUCCAUUCCC [N70 random RNA library]", "values": [{"measurement": "Kd", "setting": "GFP", "result": "> 10000", "unit": "nM"}]}
{"molecule": "hHSF1-R5-1 (ssRNA) RNA: GGGAAUGGAUCCACAUCUACGAAUUCAAUCAAGUCCCCAGACUCAGCAACACUGGACAGCGAUAUGCAGAUAACCAAGACCAAUUCACUCCAGUUCACUGCAGACUUGACGAAGCUU", "values": [{"measurement": "Kd", "setting": "hHSF2 [1]", "result": "< 20", "unit": "nM"}, {"measurement": "Kd", "setting": "hHSF1 [2]", "result": "< 20", "unit": "nM"}, {"measurement": "binding result", "setting": "GST tag [3]", "result": "no binding"}]}
{"molecule": "hHSF2-R5-2 (ssRNA) RNA: GGGAAUGGAUCCACAUCUACGAAUUCAAUCAAGUCCCCAGACUCAGCAACACUGGACAGCGAUAUGCAGAUAACCAAGACCAAUUCACUCCAGUUCACUGCAGACUUGACGAAGCUU", "values": [{"measurement": "Kd", "setting": "hHSF2 [4]", "result": "< 20", "unit": "nM"}, {"measurement": "Kd", "setting": "hHSF1 [5]", "result": "< 20", "unit": "nM"}, {"measurement": "binding result", "setting": "GST tag [6]", "result": "no binding"}]}
